Reference: paper PMC5389554 (Nucleic Acids Research, 2017)

Tests used:
[1] = biological target: the molecule itself; assay: non-reducing SDS-PAGE
[2] = biological target: the molecule itself; assay: cross-linking
[3] = biological target: the molecule itself; assay: non-reducing SDS-PAGE with immunoblot

B1: GST-CNBP (recombinant cellular nucleic acid-binding protein with GST tag) (natural protein, mouse, UniProt P53996 1-178, looked up)
chain: MSSNECFKCGRSGHWARECPTGGGRGRGMRSRGRGGFTSDRGFQFVSSSLPDICYRCGESGHLAKDCDLQEDEACYNCGRGGHIAKDCKEPKREREQCCYNCGKPGHLARDCDHADEQKCYSCGEFGHIQKDCTKVKCYRCGETGHVAINCSKTSEVNCYRCGESGHLARECTIEATA
- stoichiometry N [1]: 2

B2: endogenous CNBP (cellular nucleic acid-binding protein) (natural protein, mouse (endogenous in RAW 264.7), UniProt P53996 1-178, looked up)
chain: B1 chain
- stoichiometry N [2]: 2

B3: CNBP-HA (wild type) (natural protein, mouse, UniProt P53996 1-178, looked up)
chain: B1 chain
- stoichiometry N [3]: 2
